# B1: EV-E capsid protein VP2 (natural protein)
# chain: SPSAEACGYSDRVAQLTLGNSTITTQEAANICVAYGCWPAKLSDTDATSVDKPTEPGVSADAFYTLRSKPWQADSKGWYWKLPDALNNTGMFGQNAQFHYIYRGGWAVHVQCNATKFHQGTLLVLAIPEHQIATQEQPAFDRTMPGSEGGTFQEPFWLEDGTSLGNSLIYPHQWINLRTNNSATLILPYVNAIPMDSAIRHSNWTLAIIPVAPLKYAAETTPLVPITVTIAPMETEYNGLRRAIASNQ
# notes: VP2, cut product of VP0 of the enterovirus-E polyprotein; genome NC_001859; modelled from residue Y9; numbers count on: the mature VP2; source: EV-E propagated in BHK cells; virions purified (sucrose cushion, sucrose gradient)
# B2: EV-E capsid protein VP3 (natural protein)
# chain: GLPTKPGPGSYQFMTTDEDCSPCILPDFQPTLEIFIPGKVNNLLEIAQVESILEANNREGVEGVERYVIPVSVQDALDAQIYALRLELGGSGPLSSSLLGTLAKHYTQWSGSVEITCMFTGTFMTTGKVLLAYTPPGGDMPRNREEAMLGTHVVWDFGLQSSITLVIPWISASHFRGVSNDDVLNYQYYAAGHVTIWYQTNMVIPPGFPNTAGIIMMIAAQPNFSFRIQKDREDMTQTAILQ
# notes: VP3, cut product of the enterovirus-E polyprotein; genome NC_001859; numbers count on: the mature VP3; source: EV-E propagated in BHK cells; virions purified (sucrose cushion, sucrose gradient)
# Legend:
# [1] = biological target: T1, EV-E capsid protein VP1 (enterovirus-E (EV-E), UniProt P12915 560-840); assay: cryo-EM structure; purified EV-E virions in PBS; single particle analysis with icosahedral symmetry, ~2.2 Å; also symmetry expansion and focused classification; conditions: both partners purified
# T1 construct: VP1, cut product of the enterovirus-E (formerly bovine enterovirus) polyprotein; genome NC_001859; numbers count on: the mature VP1; The N-terminal arm is not fully built in the model; source: EV-E propagated in BHK cells; virions purified (sucrose cushion, sucrose gradient)
# T1 sequence: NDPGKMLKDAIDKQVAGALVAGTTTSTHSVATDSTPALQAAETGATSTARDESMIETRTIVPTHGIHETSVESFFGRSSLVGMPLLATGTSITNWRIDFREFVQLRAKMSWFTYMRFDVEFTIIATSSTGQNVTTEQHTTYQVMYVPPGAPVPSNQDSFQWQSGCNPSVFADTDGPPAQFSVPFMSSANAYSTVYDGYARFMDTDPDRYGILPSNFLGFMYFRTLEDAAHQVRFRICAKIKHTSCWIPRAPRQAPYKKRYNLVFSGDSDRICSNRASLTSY
# [2] = biological target: B1; assay: as above; conditions: both partners purified
binder,measurement,setting,value
B1,binding result,[1],binds
B2,binding result,[1],binds
same,binding result,[2],binds

# Source: paper PMC7793301, “Assembly of infectious enteroviruses depends on multiple, conserved genomic RNA-coat protein contacts” (PLoS Pathogens, 2020)
